According to the MegaScale stability set (Tsuboyama et al. 2023):

B1: 5KPH (parent)
chain: EEKRQVKQVAKEKLLEQSPNSKVQVRRVQKQGNTIRVELELRTNGKKENYTVEVERQGNTWTVKRITRT

Variants of: B1
Test: folding stability dG (cDNA display proteolysis); higher = more stable
Conditions: PBS, room temperature

Variant | folding stability dG
EEKRQVKQVAKEKLLEQSPNSKVQVRRVQKQGNTIRVELELRTNGKKENYTVEVERQGNTWTVKRIFRT [T67F] | 4.23 kcal/mol
EEKRQVKQVAKEKLLEQSPNSKVQVRRVQKQGNTIRVELELRTNGKKENYTVEVERQGNTWTVKRIDRT [T67D] | 3.3 kcal/mol
EEKRQVKQVAKEKLLEQSPNSKVQVRRVQKQGNTIRVELELRTNGKKENYTVEVERQGNTWTVKRIHRT [T67H] | 3.62 kcal/mol
EEKRQVKQVAKEKLLEQSPNSKVQVRRVQKQGNTIRVELELRTNGKKENYTVEVERQGNTWTVKRILRT [T67L] | 4.01 kcal/mol
EEKRQVKQVAKEKLLEQSPNSKVQVRRVQKQGNTIRVELELRTNGKKENYTVEVERQGNTWTVKRIKRT [T67K] | 3.55 kcal/mol
EEKRQVKQVAKEKLLEQSPNSKVQVRRVQKQGNTIRVELELRTNGKKENYTVEVERQGNTWTVKRIERT [T67E] | 3.64 kcal/mol
EEKRQVKQVAKEKLLEQSPNSKVQVRRVQKQGNTIRVELELRTNGKKENYTVEVERQGNTWTVKRICRT [T67C] | 3.68 kcal/mol
EEKRQVKQVAKEKLLEQSPNSKVQVRRVQKQGNTIRVELELRTNGKKENYTVEVERQGNTWTVKRIIRT [T67I] | 4.09 kcal/mol
EEKRQVKQVAKEKLLEQSPNSKVQVRRVQKQGNTIRVELELRTNGKKENYTVEVERQGNTWTTKRITRT [V63T] | 2.51 kcal/mol
EEKRQVKQVAKEKLLEQSPNSKVQVRRVQKQGNTIRVELELRTNGKKENYTVEVERQGNTWTLKRITRT [V63L] | 2.88 kcal/mol
EEKRQVKQVAKEKLLEQSPNSKVQVRRVQKQGNTIRVELELRTNGKKENYTVEVERQGNTWTMKRITRT [V63M] | 2.06 kcal/mol
EEKRQVKQVAKEKLLEQSPNSKVQVRRVQKQGNTIRVELELRTNGKKENYTVEVERQGNTWTIKRITRT [V63I] | 3.47 kcal/mol
EEKRQVKQVAKEKLLEQSPNSKVQVRRVQKQGNTIRVELELRTNGKKENYTVEVERQGNTWTQKRITRT [V63Q] | 1.16 kcal/mol
EEKRQVKQVAKEKLLEQSPNSKVQVRRVQKQGNTIRVELELRTNGKKENYTVEVERQGNTWTRKRITRT [V63R] | 0.762 kcal/mol
EEKRQVKQVAKEKLLEQSPNSKVQVRRVQKQGNTIRVELELRTNGKKENYTVEVERQGNTWTWKRITRT [V63W] | 2.07 kcal/mol
EEKRQVKQVAKEKLLEQSPNSKVQVRRVQKQGNTIRVELELRTNGKKENYTVEVERQGNTWTPKRITRT [V63P] | 2.8 kcal/mol
EEKRQVKQVAKEKLLEQSPNSKVQVRRVQKQGNTIRVELELRTNGKKENYTVEVERQGNTWTKKRITRT [V63K] | 0.466 kcal/mol
EEKRQVKQVAKEKLLEQSPNSKVQVRRVQKQGNTIRVELELRTNGKKENYTVEVERQGNTWTNKRITRT [V63N] | 0.507 kcal/mol
EEKRQVKQVAKEKLLEQSPNSKVQVRRVQKQGNTIRVELELRTNGKKENYTVEVERQGNTWTSKRITRT [V63S] | 1.81 kcal/mol
EEKRQVKQVAKEKLLEQSPNSKVQVRRVQKQGNTIRVELELRTNGKKENYTVEVERQGNTWTYKRITRT [V63Y] | 2.01 kcal/mol

Variant | folding stability dG
EEKRQVKQVAKEKLLEQSPNSKVQVRRVQKQGNTIRVELELRTNGKKENYTVEVERQGNTWTVKGITRT [R65G] | 3.6 kcal/mol
EEKRQVKQVAKEKLLEQSPNSKVQVRRVQKQGNTIRVELELRTNGKKENYTVEVERQGNTWTVKVITRT [R65V] | 3.54 kcal/mol
EEKRQVKQVAKEKLLEQSPNSKVQVRRVQKQGNTIRVELELRTNGKKENYTVEVERQGNTWTVKCITRT [R65C] | 3.44 kcal/mol
EEKRQVKQVAKEKLLEQSPNSKVQVRRVQKQGNTIRVELELRTNGKKENYTVEVERQGNTWTVKAITRT [R65A] | 4.27 kcal/mol
EEKRQVKQVAKEKLLEQSPNSKVQVRRVQKQGNTIRVELELRTNGKKENYTVEVERQGNTWTVKEITRT [R65E] | 3.61 kcal/mol
EEKRQVKQVAKEKLLEQSPNSKVQVRRVQKQGNTIRVELELRTNGKKENYTVEVERQGNTWTVKWITRT [R65W] | 3.63 kcal/mol
EEKRQVKQVAKEKLLEQSPNSKVQVRRVQKQGNTIRVELELRTNGKKENYTVEVERQGNTWTVKMITRT [R65M] | 3.84 kcal/mol
EEKRQVKQVAKEKLLEQSPNSKVQVRRVQKQGNTIRVELELRTNGKKENYTVEVERQGNTWTVKTITRT [R65T] | 4.05 kcal/mol
EEKRQVKQVAKEKLLEQSPNSKVQVRRVQKQGNTIRVELELRTNGKKENYTVEVERQGNTWTVKPITRT [R65P] | 1.4 kcal/mol
EEKRQVKQVAKEKLLEQSPNSKVQVRRVQKQGNTIRVELELRTNGKKENYTVEVERQGNTWTVKIITRT [R65I] | 3.43 kcal/mol
EEKRQVKQVAKEKLLEQSPNSKVQVRRVQKQGNTIRVELELRTNGKKENYTVEVERQGNTWTVKHITRT [R65H] | 3.58 kcal/mol
EEKRQVKQVAKEKLLEQSPNSKVQVRRVQKQGNTIRVELELRTNGKKENYTVEVERQGNTWTVKYITRT [R65Y] | 3.7 kcal/mol
EEKRQVKQVAKEKLLEQSPNSKVQVRRVQKQGNTIRVELELRTNGKKENYTVEVERQGNTWTVKQITRT [R65Q] | 3.84 kcal/mol
EEKRQVKQVAKEKLLEQSPNSKVQVRRVQKQGNTIRVELELRTNGKKENYTVEVERQGNTWTVKKITRT [R65K] | 4.01 kcal/mol
EEKRQVKQVAKEKLLEQSPNSKVQVRRVQKQGNTIRVELELRTNGKKENYTVEVERQGNTWTVKFITRT [R65F] | 3.53 kcal/mol
EEKRQVKQVAKEKLLEQSPNSKVQVRRVQKQGNTIRVELELRTNGKKENYTVEVERQGNTWTVKDITRT [R65D] | 3.59 kcal/mol
EEKRQVKQVAKEKLLEQSPNSKVQVRRVQKQGNTIRVELELRTNGKKENYTVEVERQGNTWTVKSITRT [R65S] | 4.29 kcal/mol
EEKRQVKQVAKEKLLEQSPNSKVQVRRVQKQGNTIRVELELRTNGKKENYTVEVERQGNTWTVKNITRT [R65N] | 3.73 kcal/mol
EEKRQVKQVAKEKLLEQSPNSKVQVRRVQKQGNTIRVELELRTNGKKENYTVEVERQGNTWTVKLITRT [R65L] | 3.67 kcal/mol
